In PMC3615049 (Biochemistry, 2013):

Tests used:
purified protein [1] = substrate: COC1=CC(=O)C(C)=CC1=O; assay: purified protein; assay type: biochemical, Homo sapiens; conditions: 200 μM NADH, 5 μM enzyme, 20 mM Tris pH 7.0 in H2O, 25 °C
purified protein [2] = substrate: COC1=CC(=O)C(C)=C(C/C=C(\C)CCC=C(C)C)C1=O; assay: purified protein; assay type: biochemical, Homo sapiens; conditions: 200 μM NADH, 5 μM enzyme, 25 °C, pH 7.0
SEC = molecular target: the molecule itself; assay: SEC

B1: GB1-hCLK-1 (human Clock-1 with an N-terminal immunoglobulin binding domain of protein G) (enzyme, UniProt Q99807 39-217, looked up)
chain: MTLDNISRAAVDRIIRVDHAGEYGANRIYAGQMAVLGRTSVGPVIQKMWDQEKDHLKKFNELMVTFRVRPTVLMPLWNVLGFALGAGTALLGKEGAMACTVAVEESIAHHYNNQIRTLMEEDPEKYEELLQLIKKFRDEELEHHDIGLDHDAELAPAYAVLKSIIQAGCRVAIYLSERL
- Km (purified protein [1]): 68.1 µM
- Vmax (purified protein [1]): 12.8 µM/min
- kcat/Km (purified protein [1]): 627 M⁻¹ s⁻¹
- Km (purified protein [2]): 33.8 µM
- Vmax (purified protein [2]): 39.2 µM/min
- kcat/Km (purified protein [2]): 3870 M⁻¹ s⁻¹
- stoichiometry N (SEC): 2
